T1: CydD, subunit of the heterodimeric ABC transporter CydDC (Escherichia coli, UniProt P29018 1-588)
T1 sequence: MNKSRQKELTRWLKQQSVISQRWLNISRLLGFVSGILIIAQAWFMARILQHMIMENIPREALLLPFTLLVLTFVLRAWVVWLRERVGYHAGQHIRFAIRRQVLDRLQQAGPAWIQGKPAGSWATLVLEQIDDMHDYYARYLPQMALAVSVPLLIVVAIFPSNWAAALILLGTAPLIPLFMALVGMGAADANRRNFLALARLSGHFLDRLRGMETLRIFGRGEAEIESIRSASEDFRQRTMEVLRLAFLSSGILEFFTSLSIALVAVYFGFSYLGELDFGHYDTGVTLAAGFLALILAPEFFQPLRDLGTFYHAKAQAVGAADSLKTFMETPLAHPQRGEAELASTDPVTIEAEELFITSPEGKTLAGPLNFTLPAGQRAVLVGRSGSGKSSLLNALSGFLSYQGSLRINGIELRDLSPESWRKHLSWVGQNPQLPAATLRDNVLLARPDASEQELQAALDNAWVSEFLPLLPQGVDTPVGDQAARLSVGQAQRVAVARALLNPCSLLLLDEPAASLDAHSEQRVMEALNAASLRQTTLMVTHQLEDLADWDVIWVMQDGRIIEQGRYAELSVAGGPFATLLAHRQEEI

B1: CydC, subunit of the heterodimeric ABC transporter CydDC (wild type) (natural protein, Escherichia coli)
chain: MRALLPYLALYKRHKWMLSLGIVLAIVTLLASIGLLTLSGWFLSASAVAGVAGLYSFNYMLPAAGVRGAAITRTAGRYFERLVSHDATFRVLQHLRIYTFSKLLPLSPAGLARYRQGELLNRVVADVDTLDHLYLRVISPLVGAFVVIMVVTIGLSFLDFTLAFTLGGIMLLTLFLMPPLFYRAGKSTGQNLTHLRGQYRQQLTAWLQGQAELTIFGASDRYRTQLENTEIQWLEAQRRQSELTALSQAIMLLIGALAVILMLWMASGGVGGNAQPGALIALFVFCALAAFEALAPVTGAFQHLGQVIASAVRISDLTDQKPEVTFPDTQTRVADRVSLTLRDVQFTYPEQSQQALKGISLQVNAGEHIAILGRTGCGKSTLLQQLTRAWDPQQGEILLNDSPIASLNEAALRQTISVVPQRVHLFSATLRDNLLLASPGSSDEALSEILRRVGLEKLLEDAGLNSWLGEGGRQLSGGELRRLAIARALLHDAPLVLLDEPTEGLDATTESQILELLAEMMREKTVLMVTHRLRGLSRFQQIIVMDNGQIIEQGTHAELLARQGRYYQFKQGL
B2: CydC E500Q (Walker B glutamate to glutamine mutant), subunit of CydDC^E500Q (natural protein, Escherichia coli)
chain: MRALLPYLALYKRHKWMLSLGIVLAIVTLLASIGLLTLSGWFLSASAVAGVAGLYSFNYMLPAAGVRGAAITRTAGRYFERLVSHDATFRVLQHLRIYTFSKLLPLSPAGLARYRQGELLNRVVADVDTLDHLYLRVISPLVGAFVVIMVVTIGLSFLDFTLAFTLGGIMLLTLFLMPPLFYRAGKSTGQNLTHLRGQYRQQLTAWLQGQAELTIFGASDRYRTQLENTEIQWLEAQRRQSELTALSQAIMLLIGALAVILMLWMASGGVGGNAQPGALIALFVFCALAAFEALAPVTGAFQHLGQVIASAVRISDLTDQKPEVTFPDTQTRVADRVSLTLRDVQFTYPEQSQQALKGISLQVNAGEHIAILGRTGCGKSTLLQQLTRAWDPQQGEILLNDSPIASLNEAALRQTISVVPQRVHLFSATLRDNLLLASPGSSDEALSEILRRVGLEKLLEDAGLNSWLGEGGRQLSGGELRRLAIARALLHDAPLVLLDQPTEGLDATTESQILELLAEMMREKTVLMVTHRLRGLSRFQQIIVMDNGQIIEQGTHAELLARQGRYYQFKQGL
B3: CydC H85A (histidine to alanine exchange at position 85), subunit of CydDC^H85A (natural protein, Escherichia coli)
chain: MRALLPYLALYKRHKWMLSLGIVLAIVTLLASIGLLTLSGWFLSASAVAGVAGLYSFNYMLPAAGVRGAAITRTAGRYFERLVSADATFRVLQHLRIYTFSKLLPLSPAGLARYRQGELLNRVVADVDTLDHLYLRVISPLVGAFVVIMVVTIGLSFLDFTLAFTLGGIMLLTLFLMPPLFYRAGKSTGQNLTHLRGQYRQQLTAWLQGQAELTIFGASDRYRTQLENTEIQWLEAQRRQSELTALSQAIMLLIGALAVILMLWMASGGVGGNAQPGALIALFVFCALAAFEALAPVTGAFQHLGQVIASAVRISDLTDQKPEVTFPDTQTRVADRVSLTLRDVQFTYPEQSQQALKGISLQVNAGEHIAILGRTGCGKSTLLQQLTRAWDPQQGEILLNDSPIASLNEAALRQTISVVPQRVHLFSATLRDNLLLASPGSSDEALSEILRRVGLEKLLEDAGLNSWLGEGGRQLSGGELRRLAIARALLHDAPLVLLDEPTEGLDATTESQILELLAEMMREKTVLMVTHRLRGLSRFQQIIVMDNGQIIEQGTHAELLARQGRYYQFKQGL

The binders below were run against T1, CydD, subunit of the heterodimeric ABC … (assay: cryo-EM structure).

Binding result, binds:
B1
B2
B3
